Data on two molecules can be found in patent US20180162947A1 (UCB, published 2018).

Assay [1] concerns the target T1, human CSF-1R on cells (THP-1 cells, transfected HEK293F cells, primary human monocytes) (human, UniProt P07333 20-972).
T1 construct: whole, on cells; also called hCSF-1R; cell-surface CSF-1R
Description: quantitative flow cytometry on THP-1 cells, Alexa-488-labelled antibody. In general terms: A flow cytometer gives signals particle by particle.

For assay [2], the target named is T2, recombinant human CSF-1R (form not stated) (human, UniProt P07333 20-512, limits assumed).
T2 construct: for the ELISA no species is stated; also called recombinant CSF-1R; recombinant CSF-1R protein
T2 sequence (P07333 20-512 limits assumed): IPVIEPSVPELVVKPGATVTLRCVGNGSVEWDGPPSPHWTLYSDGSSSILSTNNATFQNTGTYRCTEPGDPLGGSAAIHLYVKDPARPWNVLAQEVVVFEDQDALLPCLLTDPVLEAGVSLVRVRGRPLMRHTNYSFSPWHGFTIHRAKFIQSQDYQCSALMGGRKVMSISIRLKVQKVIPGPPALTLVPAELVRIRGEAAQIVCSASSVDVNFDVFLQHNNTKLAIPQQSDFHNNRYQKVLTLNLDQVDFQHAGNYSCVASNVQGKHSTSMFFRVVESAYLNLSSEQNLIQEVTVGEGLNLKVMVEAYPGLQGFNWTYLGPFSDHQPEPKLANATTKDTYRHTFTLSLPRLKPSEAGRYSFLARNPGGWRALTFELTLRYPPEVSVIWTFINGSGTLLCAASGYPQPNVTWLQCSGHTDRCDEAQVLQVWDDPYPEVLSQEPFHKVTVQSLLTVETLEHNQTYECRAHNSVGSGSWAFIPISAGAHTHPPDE
The assay is described as follows: ELISA ligand-blocking assay, antibody pre-mixed with 100 ng/ml CSF-1 (competitor), plate-bound CSF-1R. An excerpt: (§1) This method is from here on referred to as the ‘ELISA ligand-blocking assay’.
(In general: In an ELISA, binding on a coated surface is turned into a signal by an enzyme label.)

For assay [3], the target named is T2, recombinant human CSF-1R (form not …). Description: BIAcore, purified antibody, experiment 1.
The target is the same in assay [4]. The assay is described as follows: ELISA ligand-blocking assay, antibody pre-mixed with 1 ng/ml CSF-1 (competitor), plate-bound CSF-1R.
Description: as §1

Assay [5] has as its target T3, recombinant human CSF-1R/Fc fusion protein (R&D Systems) (human, UniProt P07333 20-517).
T3 construct: extracellular domain; Bought from R&D Systems; also called hCSF-1R/Fc; not shown: Fc part of the bought fusion protein, not described
The assay is described as follows: BIAcore 3000, antibody captured by anti-human IgG F(ab')2, hCSF-1R/Fc in solution, 25 C. The method, then: Antibodies were tested for their ability to bind CSF-1R in a BIAcore assay by measurement of binding kinetics to a purified recombinant CSF-1R/Fc fusion protein.
(§2) The assay format was capture of the anti-CSF-1R antibodies by immobilised anti-human IgG,F(ab′)₂, then a titration of hCSF-1R/Fc over the captured surface. BIA (Biomolecular Interaction Analysis) was performed using a BIAcore 3000 (GE Healthcare Bio-Sciences AB). All experiments were performed at 25° C. An AffiniPure F(ab′)₂ fragment goat anti-human IgG, F(ab′)₂ fragment specific (Jackson ImmunoResearch), was immobilised on a CM5 Sensor Chip (GE Healthcare Bio-Sciences AB) via amine coupling chemistry to a level of ˜5000 response units (RU). HBS-EP buffer (10 mM HEPES, pH 7.4, 0.15M NaCl, 3 mM EDTA, 0.005% Surfactant P20, GE Healthcare Bio-Sciences AB) was used as the running buffer with a flow rate of 10 μl/min.
Recombinant human CSF-1R/Fc (R&D Systems) was passed over the captured anti-CSF-1R antibody at 5 nM at a flow rate of 30 ul/min for 5 min, then the flow rate was increased to 100 ul/min for 30 min for the dissociation phase. The injection at 5 nM was performed twice along with a corresponding buffer control. These sensorgrams were used to generate the dissociation rate. […] These sensorgrams were used to generate the association rate. The surface was regenerated at a flow rate of 10 ul/min by a 10 ul injection of 40 mM HCl followed by a 5 ul injection of 10 mM NaOH. Double referenced background subtracted binding curves were analysed using the BIAevaluation software (version 4.1) following standard procedures. Kinetic parameters were determined from the fitting algorithm.
Background: Surface plasmon resonance follows binding to a sensor surface in real time, without labels.

Assay [6] addresses T2, recombinant human CSF-1R (form not …). The assay is described as follows: ELISA ligand-blocking assay, antibody pre-mixed with 10 ng/ml CSF-1 (competitor), plate-bound CSF-1R.
Description: as §1

For assay [7] the target is unchanged. Description: BIAcore, purified antibody, mean.
Assay [8] shares this target. Description: BIAcore, experiment 2 of 3. Here is the method: as §2
For assay [9] the target is unchanged. The assay is described as follows: BIAcore, purified antibody, experiment 2.
Assay [10] has the same target. The assay is described as follows: BIAcore, DG/SG comparison, crude cell supernatant.
The target of assay [11] is T1, human CSF-1R on cells (THP-1 cells, …). The assay is described as follows: cell-based or functional assay.
The target in assay [12] is T2, recombinant human CSF-1R (form not …). The assay is described as follows: BIAcore, mean of 3 (fourth row, unlabelled). Here is the method:
as §2

Assay [13] shares this target. The assay is described as follows: BIAcore, recombinant CSF-1R protein.
For assay [14] the target is unchanged. The assay is described as follows: BIAcore, experiment 1 of 3. The method, then:
as §2

Assay [15] deals with T1, human CSF-1R on cells (THP-1 cells, …). The assay is described as follows: inhibition of CSF-1 binding to THP-1 cells.
Assay [16] shares this target. Description: cell-based or functional assay. The source holds these as a separate data set.
Assay [17] has the same target. The assay is described as follows: cell-based or functional assay. The source holds these as a separate data set.
Assay [18] deals with T2, recombinant human CSF-1R (form not …). The assay is described as follows: BIAcore, experiment 3 of 3. The method, then:
as §2

Assay [19] shares this target. Description: BIAcore, humanisation stage, crude cell supernatant.
Assay [20] addresses T4, mouse CSF-1R (form not stated) (mouse, UniProt P09581 20-511, limits assumed).
T4 construct: also called murine CSF-1R
T4 sequence (looked up): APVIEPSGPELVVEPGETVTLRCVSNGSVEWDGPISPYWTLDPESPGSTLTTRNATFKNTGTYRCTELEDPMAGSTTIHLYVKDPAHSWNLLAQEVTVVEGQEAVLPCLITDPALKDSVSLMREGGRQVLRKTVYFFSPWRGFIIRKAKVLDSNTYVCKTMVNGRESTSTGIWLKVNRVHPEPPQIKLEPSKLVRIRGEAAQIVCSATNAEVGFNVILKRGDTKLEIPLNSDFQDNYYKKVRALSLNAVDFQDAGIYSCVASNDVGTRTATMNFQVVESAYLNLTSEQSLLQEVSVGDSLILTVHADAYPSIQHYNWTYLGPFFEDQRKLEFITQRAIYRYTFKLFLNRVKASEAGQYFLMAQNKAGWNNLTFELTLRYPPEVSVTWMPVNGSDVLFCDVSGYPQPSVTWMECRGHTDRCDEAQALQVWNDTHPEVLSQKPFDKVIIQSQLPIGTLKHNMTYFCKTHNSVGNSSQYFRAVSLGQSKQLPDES
Description: not described.

Where “and” joins values, the source holds several entries; their conditions need not be identical. Identical values can stand only once.

T1 sequence (P07333 20-972): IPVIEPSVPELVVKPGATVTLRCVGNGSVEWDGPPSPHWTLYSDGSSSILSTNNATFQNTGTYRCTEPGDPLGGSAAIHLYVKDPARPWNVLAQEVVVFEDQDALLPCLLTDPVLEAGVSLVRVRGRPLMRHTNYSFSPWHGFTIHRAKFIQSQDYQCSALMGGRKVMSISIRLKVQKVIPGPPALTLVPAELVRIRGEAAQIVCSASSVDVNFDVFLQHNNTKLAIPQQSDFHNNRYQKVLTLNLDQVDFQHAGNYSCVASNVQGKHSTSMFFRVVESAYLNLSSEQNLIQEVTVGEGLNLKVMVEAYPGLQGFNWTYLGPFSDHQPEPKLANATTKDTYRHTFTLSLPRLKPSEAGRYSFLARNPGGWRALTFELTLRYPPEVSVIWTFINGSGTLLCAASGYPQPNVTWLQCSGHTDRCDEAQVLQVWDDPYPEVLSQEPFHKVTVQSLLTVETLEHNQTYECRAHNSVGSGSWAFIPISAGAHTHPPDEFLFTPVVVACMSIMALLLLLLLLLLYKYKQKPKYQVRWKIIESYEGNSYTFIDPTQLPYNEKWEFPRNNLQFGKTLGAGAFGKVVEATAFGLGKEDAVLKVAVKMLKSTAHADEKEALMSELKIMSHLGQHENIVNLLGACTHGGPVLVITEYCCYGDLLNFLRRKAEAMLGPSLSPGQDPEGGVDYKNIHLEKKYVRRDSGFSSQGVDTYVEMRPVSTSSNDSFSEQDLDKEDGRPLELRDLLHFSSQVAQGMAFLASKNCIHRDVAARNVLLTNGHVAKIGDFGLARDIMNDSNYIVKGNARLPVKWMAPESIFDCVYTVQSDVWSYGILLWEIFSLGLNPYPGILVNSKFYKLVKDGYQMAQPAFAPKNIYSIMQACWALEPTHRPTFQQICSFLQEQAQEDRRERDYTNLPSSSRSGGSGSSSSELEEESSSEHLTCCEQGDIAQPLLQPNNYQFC
T3 sequence (P07333 20-517): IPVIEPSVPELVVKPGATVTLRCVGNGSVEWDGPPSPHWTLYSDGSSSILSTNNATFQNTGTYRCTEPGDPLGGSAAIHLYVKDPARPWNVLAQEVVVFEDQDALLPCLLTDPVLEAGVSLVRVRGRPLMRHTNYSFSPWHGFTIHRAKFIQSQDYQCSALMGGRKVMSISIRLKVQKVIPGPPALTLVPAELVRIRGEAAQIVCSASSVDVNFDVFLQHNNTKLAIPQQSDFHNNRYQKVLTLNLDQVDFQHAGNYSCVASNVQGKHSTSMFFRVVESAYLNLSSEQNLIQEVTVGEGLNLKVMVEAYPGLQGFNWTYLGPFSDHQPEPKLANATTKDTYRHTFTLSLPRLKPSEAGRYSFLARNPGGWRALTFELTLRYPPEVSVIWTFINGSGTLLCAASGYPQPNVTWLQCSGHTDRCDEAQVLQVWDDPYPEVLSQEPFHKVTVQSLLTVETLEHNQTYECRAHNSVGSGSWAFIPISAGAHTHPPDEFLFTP

B1: chimeric antibody 969 (rat variable regions, human gamma-4 heavy chain constant region and human kappa chain constant region) (antibody, human IgG4, V domains shown)
VH: QVTLKESGPGILQPSQTLSLTCTFSGFSLTTYGMGVGWIRQPSGKGLEWLANIWWDDDKYYNPSLKNRLTISKDTSNNQAFLKLTNVHTSDSATYYCARIGPIKYPTAPYRYFDFWGPGTMVTVSS
VL: DIQMTQSPASLSASLGETVSIECLASEDIYDNLAWYQKKPGKSPHLLIYYASSLQDGVPSRFSGSGSGTQYSLKINSLESEDAATYFCLQDSEYPWTFGGGTKLELKR
modifications: Alexa-488 label in the cell-based affinity assay; not carried by the letters.
notes: Full-length human IgG4 (S241P)/kappa chimeric; also called Ab969
Turning to B1, the Kd is 2200 pM in assay [1]; 4.4 pM in [3]; 9.65 pM and 9.6 pM in assay [5]; 4.3 pM in assay [7]; 3.9 pM in assay [8]; 4.2 pM in assay [9]. Also, the dissociation constant (Kd) turned out to be 2 pM in assay [10]; 3.7 pM in [12]; 4.8 pM in [13]; 3.6 pM in assay [14]; 3.6 pM in assay [18]; 3.5 pM in assay [19]. The IC50 in assay [2] was determined as 0.829 µg/mL; in assay [4], 0.0128 µg/mL; in assay [6], 0.0793 µg/mL; in assay [15] it was 0.00289 µg/mL. In addition, the off-rate (koff) was 9.49e-06 s⁻¹ in assay [3]; 2.49e-05 s⁻¹ in [5]; 9.3e-06 s⁻¹ in [7]; 1.1e-05 s⁻¹ in [8]; 9.1e-06 s⁻¹ in assay [9]; 8.53e-06 s⁻¹ in assay [10]. In addition, the off-rate constant (koff) in assay [12] is 1.03e-05 s⁻¹; in assay [14], 1.03e-05 s⁻¹; in assay [18], 9.51e-06 s⁻¹; in [19], 7.99e-06 s⁻¹. In addition, the on-rate constant (kon) in [3] is 2.16e+06 M⁻¹ s⁻¹; in assay [5] it was 2.58e+06 M⁻¹ s⁻¹; in assay [7] it was 2.16e+06 M⁻¹ s⁻¹; in assay [8], 2.79e+06 M⁻¹ s⁻¹; in assay [9], 2.16e+06 M⁻¹ s⁻¹; in [10], 4.35e+06 M⁻¹ s⁻¹. The association rate constant (kon) in assay [12] was found to be 2.77e+06 M⁻¹ s⁻¹; in assay [14] it was 2.83e+06 M⁻¹ s⁻¹; in [18] it was 2.68e+06 M⁻¹ s⁻¹; in assay [19] it was 2.31e+06 M⁻¹ s⁻¹. In addition, in assay [11], the “IC50, MCP-1 inhibition assay, Donor 1” value is 0.031 µg/mL. In [11], the “IC50, MCP-1 inhibition assay, Donor 2” value was 0.0057 µg/mL. In addition, in [11], the “IC50, MCP-1 inhibition assay, Donor 3” value amounted to 0.0594 µg/mL. In assay [11], the “IC50, MCP-1 inhibition assay, Donor 4” value turned out to be 0.0417 µg/mL. Further, in assay [11], the “IC50, MCP-1 inhibition assay, Donor 5” value amounted to 0.0209 µg/mL. The “IC50, MCP-1 inhibition assay, Donor 6” value in assay [11] is 0.007 µg/mL. Moreover, in assay [16], the “mean IC50, MCP-1 inhibition assay, primary human monocytes, 100 ng/ml CSF-1” value is 0.0246 µg/mL. The “IC50, IL-34-dependent human monocyte assay (MCP-1 by ELISA), 100 ng/ml IL-34, Donor 1” value in [17] is 0.0201 µg/mL. Further, the “IC50, IL-34-dependent human monocyte assay (MCP-1 by ELISA), 100 ng/ml IL-34, Donor 2” value in assay [17] was 0.00979 µg/mL.

B2: Ab969.g2 (969gH2gL7) (antibody, human IgG4 S228P, kappa, V domains shown)
VH: EVTLKESGPALVKPTQTLTLTCTFSGFSLTTYGMGVGWIRQPPGKALEWLANIWWDDDKYYNPSLKNRLTISKDTSKNQVVLTMTNMDPVDTATYYCARIGPIKYPTAPYRYFDFWGQGTMVTVSS
VL: DIQMTQSPSSLSASVGDRVTITCLASEDIYDNLAWYQQKPGKAPKLLIYYASSLQDGVPSRFSGSGSGTDYTLTISSLQPEDFATYYCLQDSEYPWTFGGGTKVEIKR
notes: Full-length humanised IgG4 (S241P), human kappa (Km3 allotype); also called 969gH2gL7 DG; Ab969.2
For the molecule B2, the binding result in assay [20] is on record as “no binding”.

For orientation: Kd means the concentration at which binding is half-saturated. By IC50 is commonly meant the point on the concentration scale where inhibition reaches its midpoint. A word on the koff: it is the rate constant with which the complex falls apart. The term kon denotes the rate constant with which the complex forms.
